Results published in patent US11833164B2, “Methods of treating Fabry disease in patients having a mutation in the GLA gene” (Amicus Therapeutics, Inc., priority 2019, dated 2023).
Changes are numbered by the printed parent chain. In names and notes the source's numbering stands.

B1: I359V (protein)
chain: MQLRNPELHLGCALALRFLALVSWDIPGARALDNGLARTPTMGWLHWERFMCNLDCQEEPDSCISEKLFMEMAELMVSEGWKDAGYEYLCIDDCWMAPQRDSEGRLQADPQRFPHGIRQLANYVHSKGLKLGIYADVGNKTCAGFPGSFGYYDIDAQTFADWGVDLLKFDGCYCDSLENLADGYKHMSLALNRTGRSIVYSCEWPLYMWPFQKPNYTEIRQYCNHWRNFADIDDSWKSIKSILDWTSFNQERIVDVAGPGGWNDPDMLVIGNFGLSWNQQVTQMALWAIMAAPLFMSNDLRHISPQAKALLQDKDVIAINQDPLGKQGYQLRQGDNFEVWERPLSGLAWAVAMINRQEVGGPRSYTIAVASLGKGVACNPACFITQLLPVKRKLGFYEWTSRLRSHINPTGTVLLQLENTMQMSLKDLL
B2: R363G (protein)
chain: B1 chain with V359I, R363G
B3: R363L (protein)
chain: B1 chain with V359I, R363L
B4: Y365F (protein)
chain: B1 chain with V359I, Y365F
B5: Y365N (protein)
chain: B1 chain with V359I, Y365N
B6: Y365D (protein)
chain: B1 chain with V359I, Y365D
B7: S364C (protein)
chain: B1 chain with V359I, S364C
B8: S364P (protein)
chain: B1 chain with V359I, S364P
B9: P362H (protein)
chain: B1 chain with V359I, P362H
B10: R363S (protein)
chain: B1 chain with V359I, R363S
B11: P362A (protein)
chain: B1 chain with V359I, P362A
B12: P362R (protein)
chain: B1 chain with V359I, P362R
B13: P362S (protein)
chain: B1 chain with V359I, P362S

Test system: mutant form of α-Gal A expressed in HEK-293 cells
Experiment: HEK assay (GLP HEK / Migalastat Amenability Assay): α-Gal A activity in lysates of transiently transfected HEK-293 cells incubated with or without 10 μM migalastat
Type: cell-based, human
Details: for Absolute increase (% WT) / Relative increase: 10 μM migalastat versus baseline; for Baseline α-Gal A activity (% WT): absence of migalastat; for Baseline α-Gal A activity (% WT) / 10 μM migalastat α-Gal A activity (% WT): percentage of baseline wild-type α-Gal A activity; for Baseline α-Gal A activity (% WT) / Baseline α-Gal A activity / 10 μM migalastat α-Gal A activity / 10 μM migalastat α-Gal A activity (% WT): mean ± SEM; for Baseline α-Gal A activity / 10 μM migalastat α-Gal A activity: lysates of HEK-293 cells transiently transfected with the mutant form; for Baseline α-Gal A activity: incubated 5 days in absence of migalastat; for 10 μM migalastat α-Gal A activity: incubated 5 days with 10 μM migalastat; for 10 μM migalastat α-Gal A activity (% WT): with 10 μM migalastat, 5 days
Outline: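 Activity reported as 4-MU released (nmol/mg/hr), mean±SEM, from lysates of transiently transfected HEK-293 cells expressing mutant α-Gal A, cultured with or without 10 μM migalastat.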

Row | Molecule | Absolute increase (% WT) | Relative increase | Baseline α-Gal A activity (% WT) | Baseline α-Gal A activity [nmol/mg/h] | 10 μM migalastat α-Gal A activity [nmol/mg/h] | 10 μM migalastat α-Gal A activity (% WT)
1 | B1 | 31.6 | 1.6 | 51.5 ± 3.4 | 20990 ± 1174 | 34265 ± 1528 | 83.1 ± 3.3
2 | B2 | 72.6 | 2.7 | 41.8 ± 5.1 | 13990 ± 1613 | 37837 ± 2998 | 114.4 ± 10.7
3 | B3 | 62.2 | 3.5 | 23.2 ± 1.9 | 8123 ± 869 | 27997 ± 2485 | 85.4 ± 9.5
4 | B4 | 21.1 | 1.3 | 67.7 ± 5.1 | 19631 ± 2010 | 25395 ± 2160 | 88.8 ± 5.3
5 | B5 | 22.5 | 1.4 | 59.7 ± 1.7 | 19111 ± 869 | 26514 ± 1978 | 82.2 ± 4.5
6 | B6 | 19.7 | 1.6 | 31.3 ± 2.7 | 9119 ± 1027 | 14664 ± 1311 | 51 ± 3.5
7 | B7 | 40.0 | 1.3 | 127 ± 10.6 | 41263 ± 2389 | 53912 ± 3067 | 167 ± 14.8
8 | B8 | 63.1 | 1.4 | 143.2 ± 13.7 | 48193 ± 4573 | 66731 ± 4698 | 206.4 ± 20
9 | B9 | 33.4 | 3.9 | 11.2 ± 1 | 3713 ± 377 | 14620 ± 531 | 44.6 ± 1.9
10 | B10 | 86.6 | 2.7 | 50.1 ± 5.9 | 16400 ± 1695 | 44621 ± 3266 | 136.7 ± 12.4
11 | B11 | 40.1 | 1.4 | 100.8 ± 9.5 | 35322 ± 3087 | 49809 ± 2721 | 140.9 ± 8.5
12 | B12 | 23.9 | 1.8 | 25 ± 3.1 | 8745 ± 1176 | 15971 ± 1019 | 48.9 ± 4.1
13 | B13 | 53.8 | 1.8 | 71.2 ± 7.7 | 25234 ± 2794 | 45209 ± 4138 | 125 ± 9
